Measurements reported in patent US20040077531A1, “Use of galanin-like peptide” (priority 2001, published 2004).

B1: 3 (protein)
chain: MADIQNISLDSPGSVGAVAVPVIFALIFLLGMVGNGLVLAVLLQPGPSAWQEPSSTTDLFILNLAVADLCFILCCVPFQAAIYTLDAWLFGAFVCKTVHLLIYLTMYASSFTLAAVSLDRYLAVRHPLRSRALRTPRNARAAVGLVWLLAALFSAPYLSYYGTVRYGALELCVPAWEDARRRALDVATFAAGYLLPVAVVSLAYGRTLCFLWAAVGPAGAAAAEARRRATGRAGRAMLAVAALYALCWGPHHALILCFWYGRFAFSPATYACRLASHCLAYANSCLNPLVYSLASRHFRARFRRLWPCGRRRHRHHHRAHRALRRVQPASSGPAGYPGDARPRGWSMEPRGDALRGGGETRLTLSPRGPQ
modifications: Rat
B2: 6 (protein)
chain: MADIQNISLDSPGSVGAVAVPVIFALIFLLGMVGNGLVLAVLLQPGPSAWQEPSSTTDLFILNLAVADLCFILCCVPFQAAIYTLDAWLFGAFVCKTVHLLIYLTMYASSFTLAAVSLDRYLAVRHPLRSRALRTPRNARAAVGLVWLLAALFSAPYLSYYGTVRYGALELCVPAWEDARRRALDVATFAAGYLLPVAVVSLAYGRTLCFLWAAVGPAGAAAAEARRRATGRAGRAMLAVAALYALCWGPHHALILCFWYGRFAFSPATYACRLASHCLAYANSCLNPLVYSLASRHFRARFRRLWPCGRRRHRHHHRAHRALRRVQPASSGPAGYPGDARPRGWSMEPRGDALRGGGETRLTLSPRGPQ
modifications: Rat
B3: 8 (protein)
chain: MPRGCALLLASLLLASALSATLGLGSPVKEKRGWTLNSAGYLLGPHAIDNHRSFHDKYGLAGKRELEPEDEARPGGFDRLQSEDKAIRTIMEFLAFLHLKEAGALGRLPGLPSAASSEDAGQS
modifications: Porcine
B4: 1 (protein)
chain: MELAPVNLSEGNGSDPEPPAEPRPLFGIGVENFITLVVFGLIFAMGVLGNSLVITVLARSKPGKPRSTTNLFILNLSIADLAYLLFCIPFQATVYALPTWVLGAFICKFIHYFFTVSMLVSIFTLAAMSVDRYVAIVHSRRSSSLRVSRNALLGVGFIWALSIAMASPVAYYQRLFHRDSNQTFCWEHWPNQLHKKAYVVCTFVFGYLLPLLLICFCYAKVLNHLHKKLKNMSKKSEASKKKTAQTVLVVVVVFGISWLPHHVIHLWAEFGAFPLTPASFFFRITAHCLAYSNSSVNPIIYAFLSENFRKAYKQVFKCRVCNESPHGDAKEKNRIDTPPSTNCTHV
modifications: Rat
B5: 4 (protein)
chain: MELAPVNLSEGNGSDPEPPAEPRPLFGIGVENFITLVVFGLIFAMGVLGNSLVITVLARSKPGKPRSTTNLFILNLSIADLAYLLFCIPFQATVYALPTWVLGAFICKFIHYFFTVSMLVSIFTLAAMSVDRYVAIVHSRRSSSLRVSRNALLGVGFIWALSIAMASPVAYYQRLFHRDSNQTFCWEHWPNQLHKKAYVVCTFVFGYLLPLLLICFCYAKVLNHLHKKLKNMSKKSEASKKKTAQTVLVVVVVFGISWLPHHVIHLWAEFGAFPLTPASFFFRITAHCLAYSNSSVNPIIYAFLSENFRKAYKQVFKCRVCNESPHGDAKEKNRIDTPPSTNCTHV
modifications: Rat
B6: 2 (protein)
chain: MNGSGSQGAENTSQEGGSGGWQPEAVLVPLFFALIFLVGTVGNALVLAVLLRGGQAVSTTNLFILNLGVADLCFILCCVPFQATIYTLDDWVFGSLLCKAVHFLIFLTMHASSFTLAAVSLDRYLAIRYPLHSRELRTPRNALAAIGLIWGLALLFSGPYLSYYRQSQLANLTVCHPAWSAPRRRAMDLCTFVFSYLLPVLVLSLTYARTLRYLWRTVDPVTAGSGSQRAKRKVTRMIIIVAVLFCLCWMPHHALILCVWFGRFPLTRATYALRILSHLVSYANSCVNPIVYALVSKHFRKGFRKICAGLLRPAPRRASGRVSILAPGNHSGSMLEQESTDLTQVSEAAGPLVPPPALPNCTASSRTLDPAC
modifications: Rat
B7: 5 (protein)
chain: MNGSGSQGAENTSQEGGSGGWQPEAVLVPLFFALIFLVGTVGNALVLAVLLRGGQAVSTTNLFILNLGVADLCFILCCVPFQATIYTLDDWVFGSLLCKAVHFLIFLTMHASSFTLAAVSLDRYLAIRYPLHSRELRTPRNALAAIGLIWGLALLFSGPYLSYYRQSQLANLTVCHPAWSAPRRRAMDLCTFVFSYLLPVLVLSLTYARTLRYLWRTVDPVTAGSGSQRAKRKVTRMIIIVAVLFCLCWMPHHALILCVWFGRFPLTRATYALRILSHLVSYANSCVNPIVYALVSKHFRKGFRKICAGLLRPAPRRASGRVSILAPGNHSGSMLEQESTDLTQVSEAAGPLVPPPALPNCTASSRTLDPAC
modifications: Rat

Columns and labels:
[1] = target: T1, pig-type ligand peptide (1-60) (SEQ ID NO: 31) (Sus scrofa, UniProt Q9TT95); test: Competitive EIA of monoclonal antibodies against pig-type ligand peptide; assay type: binding; conditions: B/B0 in the presence of 100 nM immunogen; HRP-labeled SEQ ID NO: 44
T1 construct: made in house
T1 sequence (Q9TT95 23-82): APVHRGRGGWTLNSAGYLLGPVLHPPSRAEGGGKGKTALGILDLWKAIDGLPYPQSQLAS

[2] = target: T2, rat-type galanin (SEQ ID NO: 61) (Rattus norvegicus, UniProt P10683); test: Competitive EIA of monoclonal antibodies against rat galanin; assay type: binding; conditions: B/B0 in the presence of 100 nM immunogen; HRP-labeled SEQ ID NO: 44
T2 sequence (P10683 33-61 limits assumed): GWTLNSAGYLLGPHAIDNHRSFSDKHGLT

Molecule	Reactivity Pig Ligand (SEQ ID NO: 31) [1]	Reactivity Rat Galanin (SEQ ID NO: 61) [2]
B1	± (0.50 ≦ (B/B0) < 0.80)	− (0.80 ≦ (B/B0))
B2	+ ((B/B0) < 0.50)	− (0.80 ≦ (B/B0))
B3	− (0.80 ≦ (B/B0))	− (0.80 ≦ (B/B0))
B4	− (0.80 ≦ (B/B0))	− (0.80 ≦ (B/B0))
B5	+ ((B/B0) < 0.50)	− (0.80 ≦ (B/B0))
B6	+ ((B/B0) < 0.50)	− (0.80 ≦ (B/B0))
B7	± (0.50 ≦ (B/B0) < 0.80)	− (0.80 ≦ (B/B0))
